From the supplement of paper PMC9233669
Fewer inactive variants are shown than the library holds.

Tests used:
biotinyl-Phe-oxazolone = assay: self-aminoacylation, catalytic enhancement (BFO) (fold over background); higher = more active; k-Seq, kA / k0A0; sequences stand for … in GGGAAUGGAUCCACAUCUACGAAUUC…UUCACUGCAGACUUGACGAAGCUG
Outline: (§1)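 Mutagenized RNA pools (0.43 μM; 21-nt variable region) were treated with 2–1250 μM of each biotinyl-aminoacyl-oxazolone. Conditions were 50 μL HEPES/NaCl/KCl/MgCl2/CaCl2 buffer, 5% acetonitrile, pH 6.9–7.0, room temperature, 90 minutes. Catalytic enhancement, the median kA relative to the uncatalyzed rate, was derived from streptavidin capture, qPCR and Illumina sequencing.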

biotinyl-Met-oxazolone = assay: self-aminoacylation, catalytic enhancement (BMO) (fold over background); higher = more active; k-Seq, kA / k0A0; sequences stand for … in GGGAAUGGAUCCACAUCUACGAAUUC…UUCACUGCAGACUUGACGAAGCUG
Outline: as §1

biotinyl-Trp-oxazolone = assay: self-aminoacylation, catalytic enhancement (BWO) (fold over background); higher = more active; k-Seq, kA / k0A0; sequences stand for … in GGGAAUGGAUCCACAUCUACGAAUUC…UUCACUGCAGACUUGACGAAGCUG
Outline: as §1

biotinyl-Leu-oxazolone = assay: self-aminoacylation, catalytic enhancement (BLO) (fold over background); higher = more active; k-Seq, kA / k0A0; sequences stand for … in GGGAAUGGAUCCACAUCUACGAAUUC…UUCACUGCAGACUUGACGAAGCUG
Outline: as §1

## AAGUCUGCUAACAGUCGCAAG [Fam3.1 aminoacylation ribozyme variant]
biotinyl-Phe-oxazolone
  self-aminoacylation: 28.4
biotinyl-Met-oxazolone
  self-aminoacylation: 2.09
biotinyl-Trp-oxazolone
  self-aminoacylation: 7.03

## AAGUCUGCUAAUAGUCGCAAG [Fam3.1 aminoacylation ribozyme variant]
biotinyl-Phe-oxazolone
  self-aminoacylation: 51.8
biotinyl-Met-oxazolone
  self-aminoacylation: 2.44
biotinyl-Trp-oxazolone
  self-aminoacylation: 9.75

## AAGUUAGCUAAAAGUCGCAAG [Fam3.1 aminoacylation ribozyme variant]
biotinyl-Phe-oxazolone
  self-aminoacylation: 2.41
biotinyl-Leu-oxazolone
  self-aminoacylation: 2.01

## AAGUUGGCUAAUUGUCGCAAG [Fam3.1 aminoacylation ribozyme variant]
biotinyl-Phe-oxazolone
  self-aminoacylation: 2.94
biotinyl-Leu-oxazolone
  self-aminoacylation: 2.41
biotinyl-Trp-oxazolone
  self-aminoacylation: 2.71

## AAGUUUGCCAAUAGUCGCAAA [Fam3.1 aminoacylation ribozyme variant]
biotinyl-Phe-oxazolone
  self-aminoacylation: 2.47
biotinyl-Met-oxazolone
  self-aminoacylation: 2.37

## AAGUUUGCCAAUAGUCGCAAU [Fam3.1 aminoacylation ribozyme variant]
biotinyl-Phe-oxazolone
  self-aminoacylation: 9.89
biotinyl-Met-oxazolone
  self-aminoacylation: 2.07
biotinyl-Trp-oxazolone
  self-aminoacylation: 3.5

## AAGUUUGCUAAUAGUCGAAAA [Fam3.1 aminoacylation ribozyme variant]
biotinyl-Met-oxazolone
  self-aminoacylation: 2.08

## ACCUUUGCUAAUAGUCGCAAG [Fam3.1 aminoacylation ribozyme variant]
biotinyl-Phe-oxazolone
  self-aminoacylation: 2.02
biotinyl-Leu-oxazolone
  self-aminoacylation: 2.31
biotinyl-Trp-oxazolone
  self-aminoacylation: 2.06

## ACUACCCUGGUCAUCGAGAGA [Fam2.1 aminoacylation ribozyme variant]
biotinyl-Met-oxazolone
  self-aminoacylation: 2.02

## AGUACCCUGGUCAUCGAGUAA [Fam2.1 aminoacylation ribozyme variant]
biotinyl-Phe-oxazolone
  self-aminoacylation: 3.84
biotinyl-Met-oxazolone
  self-aminoacylation: 2.71
biotinyl-Leu-oxazolone
  self-aminoacylation: 2.52

## AUUACCCUGGUCAUCGUGCGA [Fam2.1 aminoacylation ribozyme variant]
biotinyl-Phe-oxazolone
  self-aminoacylation: 9.74
biotinyl-Leu-oxazolone
  self-aminoacylation: 2.14
biotinyl-Trp-oxazolone
  self-aminoacylation: 2.28

## AUUACCCUGGUCGUCGAGCGA [Fam2.1 aminoacylation ribozyme variant]
biotinyl-Phe-oxazolone
  self-aminoacylation: 3.35
biotinyl-Leu-oxazolone
  self-aminoacylation: 2.17

## AUUACUCUGGUCAUCGAGUGG [Fam2.1 aminoacylation ribozyme variant]
biotinyl-Met-oxazolone
  self-aminoacylation: 2.16
biotinyl-Leu-oxazolone
  self-aminoacylation: 2.42

## AUUCACAUAGGUCGUCGGGUG [Fam2.2 aminoacylation ribozyme variant]
biotinyl-Phe-oxazolone
  self-aminoacylation: 7.92
biotinyl-Leu-oxazolone
  self-aminoacylation: 2.07

## AUUCACCUAGCUUAUCGGGUG [Fam2.2 aminoacylation ribozyme variant]
biotinyl-Phe-oxazolone
  self-aminoacylation: 4.71
biotinyl-Met-oxazolone
  self-aminoacylation: 2.12
biotinyl-Trp-oxazolone
  self-aminoacylation: 2.2

## AUUCACCUAGGUCAGCGGCUG [Fam2.2 aminoacylation ribozyme variant]
biotinyl-Phe-oxazolone
  self-aminoacylation: 8.56
biotinyl-Met-oxazolone
  self-aminoacylation: 2.5
biotinyl-Leu-oxazolone
  self-aminoacylation: 3.16

## AUUCACCUAGUUCAUCGGGGG [Fam2.2 aminoacylation ribozyme variant]
biotinyl-Phe-oxazolone
  self-aminoacylation: 6.17
biotinyl-Leu-oxazolone
  self-aminoacylation: 2.23

## AUUCACUUAGGUCAUAGGGUG [Fam2.2 aminoacylation ribozyme variant]
biotinyl-Phe-oxazolone
  self-aminoacylation: 3.24
biotinyl-Leu-oxazolone
  self-aminoacylation: 2.08

## AUUCAUCUAGCUCAUCGGGUG [Fam2.2 aminoacylation ribozyme variant]
biotinyl-Met-oxazolone
  self-aminoacylation: 2.12
biotinyl-Trp-oxazolone
  self-aminoacylation: 2.3

## AUUCAUCUAGGUCAUCAGGUG [Fam2.2 aminoacylation ribozyme variant]
biotinyl-Phe-oxazolone
  self-aminoacylation: 2.89
biotinyl-Met-oxazolone
  self-aminoacylation: 2.23
biotinyl-Trp-oxazolone
  self-aminoacylation: 2.07

## AUUCCCCUGGUCAUCAAGUGA [Fam2.1 aminoacylation ribozyme variant]
biotinyl-Phe-oxazolone
  self-aminoacylation: 3.87
biotinyl-Met-oxazolone
  self-aminoacylation: 2.36
biotinyl-Trp-oxazolone
  self-aminoacylation: 2.34

## CAACUUCAAACAAUCGGUCUG [Fam1A.1 aminoacylation ribozyme variant]
biotinyl-Phe-oxazolone
  self-aminoacylation: 97.7
biotinyl-Leu-oxazolone
  self-aminoacylation: 2.61
biotinyl-Trp-oxazolone
  self-aminoacylation: 44.8

## CACCUUCAAACAAUCGGUCUG [Fam1A.1 aminoacylation ribozyme variant]
biotinyl-Phe-oxazolone
  self-aminoacylation: 98.1
biotinyl-Leu-oxazolone
  self-aminoacylation: 2.61
biotinyl-Trp-oxazolone
  self-aminoacylation: 43.9

## CAGUUUGCUAAUAGUCGCAUG [Fam3.1 aminoacylation ribozyme variant]
biotinyl-Phe-oxazolone
  self-aminoacylation: 2.84
biotinyl-Leu-oxazolone
  self-aminoacylation: 2.08
biotinyl-Trp-oxazolone
  self-aminoacylation: 2.07

## CCACACUUCAGCCAAUCGGUC [Fam1B.1 aminoacylation ribozyme variant]
biotinyl-Leu-oxazolone
  self-aminoacylation: 2.27
biotinyl-Trp-oxazolone
  self-aminoacylation: 2.11

## CCACUUCAAACAAUCGGUCUU [Fam1A.1 aminoacylation ribozyme variant]
biotinyl-Phe-oxazolone
  self-aminoacylation: 40.9
biotinyl-Leu-oxazolone
  self-aminoacylation: 2.11
biotinyl-Trp-oxazolone
  self-aminoacylation: 25.2

## CCCCACUUCAAUCAAUCGGUC [Fam1B.1 aminoacylation ribozyme variant]
biotinyl-Phe-oxazolone
  self-aminoacylation: 37.1
biotinyl-Leu-oxazolone
  self-aminoacylation: 2.28
biotinyl-Trp-oxazolone
  self-aminoacylation: 31

## CGACUUCAAACAAUCGGUCUG [Fam1A.1 aminoacylation ribozyme variant]
biotinyl-Phe-oxazolone
  self-aminoacylation: 102
biotinyl-Leu-oxazolone
  self-aminoacylation: 2.66
biotinyl-Trp-oxazolone
  self-aminoacylation: 44.4

## CGACUUCAAGCAAUCGGUCUG [Fam1A.1 aminoacylation ribozyme variant]
biotinyl-Phe-oxazolone
  self-aminoacylation: 26.6
biotinyl-Leu-oxazolone
  self-aminoacylation: 2.13
biotinyl-Trp-oxazolone
  self-aminoacylation: 20.1

## CUACUUCAACCAAUCGGCCUG [Fam1A.1 aminoacylation ribozyme variant]
biotinyl-Phe-oxazolone
  self-aminoacylation: 47.8
biotinyl-Leu-oxazolone
  self-aminoacylation: 2.86
biotinyl-Trp-oxazolone
  self-aminoacylation: 42.2

## CUACUUCAACCAAUCGGUUUG [Fam1A.1 aminoacylation ribozyme variant]
biotinyl-Phe-oxazolone
  self-aminoacylation: 17
biotinyl-Trp-oxazolone
  self-aminoacylation: 10.8

## CUAGUUCAAACAAUCGGUCUG [Fam1A.1 aminoacylation ribozyme variant]
biotinyl-Phe-oxazolone
  self-aminoacylation: 11
biotinyl-Trp-oxazolone
  self-aminoacylation: 6.47

## CUAGUUCAAACAAUCGGUUUG [Fam1A.1 aminoacylation ribozyme variant]
biotinyl-Phe-oxazolone
  self-aminoacylation: 4.59
biotinyl-Trp-oxazolone
  self-aminoacylation: 3.41

## CUAGUUCAAUCAAUCGGUCUG [Fam1A.1 aminoacylation ribozyme variant]
biotinyl-Phe-oxazolone
  self-aminoacylation: 3.97
biotinyl-Trp-oxazolone
  self-aminoacylation: 2.63

## CUAGUUCCAACAAUCGGUCUG [Fam1A.1 aminoacylation ribozyme variant]
biotinyl-Phe-oxazolone
  self-aminoacylation: 9.79
biotinyl-Trp-oxazolone
  self-aminoacylation: 9.72

## CUCCCUCAAACAAUCGGUCUG [Fam1A.1 aminoacylation ribozyme variant]
biotinyl-Phe-oxazolone
  self-aminoacylation: 3.26
biotinyl-Trp-oxazolone
  self-aminoacylation: 3.48

## CUCCUUCAAAGAAUCGGUCUG [Fam1A.1 aminoacylation ribozyme variant]
biotinyl-Phe-oxazolone
  self-aminoacylation: 6.59
biotinyl-Trp-oxazolone
  self-aminoacylation: 5.66

## CUGGUUCAAACAAUCGGUCUG [Fam1A.1 aminoacylation ribozyme variant]
biotinyl-Phe-oxazolone
  self-aminoacylation: 14
biotinyl-Trp-oxazolone
  self-aminoacylation: 9.11

## CUUCACCUAGGUCAACGGGUG [Fam2.2 aminoacylation ribozyme variant]
biotinyl-Phe-oxazolone
  self-aminoacylation: 9.32
biotinyl-Met-oxazolone
  self-aminoacylation: 2.28
biotinyl-Leu-oxazolone
  self-aminoacylation: 2.48

## CUUCUUCAAACAAUCGGUCUA [Fam1A.1 aminoacylation ribozyme variant]
biotinyl-Phe-oxazolone
  self-aminoacylation: 11.4
biotinyl-Trp-oxazolone
  self-aminoacylation: 4.8

## GCACACUUCAAGCAAUCAGUC [Fam1B.1 aminoacylation ribozyme variant]
biotinyl-Phe-oxazolone
  self-aminoacylation: 9.69
biotinyl-Trp-oxazolone
  self-aminoacylation: 4.94

## GCACACUUCAAGCAAUCGGUC [Fam1B.1 aminoacylation ribozyme variant]
biotinyl-Phe-oxazolone
  self-aminoacylation: 32.3
biotinyl-Trp-oxazolone
  self-aminoacylation: 19.8

## GCACAUUUCAAGCAAUCGGUC [Fam1B.1 aminoacylation ribozyme variant]
biotinyl-Phe-oxazolone
  self-aminoacylation: 3.69
biotinyl-Trp-oxazolone
  self-aminoacylation: 3.16

## GUACUUCAAACAAUCGGUCCG [Fam1A.1 aminoacylation ribozyme variant]
biotinyl-Phe-oxazolone
  self-aminoacylation: 6.11
biotinyl-Trp-oxazolone
  self-aminoacylation: 3.6

## UAGUUUGCUAAUAGUCGCGAG [Fam3.1 aminoacylation ribozyme variant]
biotinyl-Phe-oxazolone
  self-aminoacylation: 2.58
biotinyl-Leu-oxazolone
  self-aminoacylation: 2.08
biotinyl-Trp-oxazolone
  self-aminoacylation: 2.02

## UAGUUUGCUAAUAGUCGGAAG [Fam3.1 aminoacylation ribozyme variant]
biotinyl-Phe-oxazolone
  self-aminoacylation: 6.04
biotinyl-Trp-oxazolone
  self-aminoacylation: 2.37

## UAGUUUGCUAAUAGUCGUAAG [Fam3.1 aminoacylation ribozyme variant]
biotinyl-Phe-oxazolone
  self-aminoacylation: 17.9
biotinyl-Trp-oxazolone
  self-aminoacylation: 4.18

## UAGUUUGUUAAUAGUCGCAAG [Fam3.1 aminoacylation ribozyme variant]
biotinyl-Phe-oxazolone
  self-aminoacylation: 3.23
biotinyl-Leu-oxazolone
  self-aminoacylation: 2.05

## UCACACUUCAAGGAAUCGGUC [Fam1B.1 aminoacylation ribozyme variant]
biotinyl-Phe-oxazolone
  self-aminoacylation: 5.43
biotinyl-Trp-oxazolone
  self-aminoacylation: 3.91

## UCAUACUUCAAGCAAUCGGUC [Fam1B.1 aminoacylation ribozyme variant]
biotinyl-Phe-oxazolone
  self-aminoacylation: 16.9
biotinyl-Trp-oxazolone
  self-aminoacylation: 9.74

## UUAAUUCAAACAAUCGGUCUG [Fam1A.1 aminoacylation ribozyme variant]
biotinyl-Phe-oxazolone
  self-aminoacylation: 3.57
biotinyl-Trp-oxazolone
  self-aminoacylation: 2.47

## UUACUUCAAACAAUCAGUCUG [Fam1A.1 aminoacylation ribozyme variant]
biotinyl-Phe-oxazolone
  self-aminoacylation: 20.1
biotinyl-Trp-oxazolone
  self-aminoacylation: 9.66

## UUACUUCAAACAAUCGGUCUA [Fam1A.1 aminoacylation ribozyme variant]
biotinyl-Phe-oxazolone
  self-aminoacylation: 6.02
biotinyl-Trp-oxazolone
  self-aminoacylation: 2.61

## UUACUUCAAAUAAUCGGUCUG [Fam1A.1 aminoacylation ribozyme variant]
biotinyl-Phe-oxazolone
  self-aminoacylation: 10.3
biotinyl-Trp-oxazolone
  self-aminoacylation: 7.5

## UUUCUUCAAACAAUCGGUCUG [Fam1A.1 aminoacylation ribozyme variant]
biotinyl-Phe-oxazolone
  self-aminoacylation: 7.67
biotinyl-Trp-oxazolone
  self-aminoacylation: 5.16
